# Data from US20160348147A1, “SYSTEMS AND DEVICES FOR PROTEASE DETECTION BASED ON ENGINEERED POLYMERS AND BIOPOLYMERS AND METHODS OF USE” (DUKE UNIVERSITY, priority 2014, published 2016).
# Tests used:
# Assay type in all cases: biochemical
# MMP-1 [1] = molecular target: T1, MMP-1 (Homo sapiens, UniProt P03956); test: Kinetic study of MMP-1 cleavage (SDS-PAGE, Lineweaver-Burke plot); details: substrate 25, 50, 100, 200 μM, enzyme 20 ng/mL, buffer, 40° C.
# T1 construct: Human MMP-1 catalytic domain (recombinant, produced in E. coli, 19.9 kDa, >95% purity); purchased Enzo Life Sciences (Farmingdale, N.Y.); host or cells: E. coli
# T1 sequence (P03956 100-269 limits assumed): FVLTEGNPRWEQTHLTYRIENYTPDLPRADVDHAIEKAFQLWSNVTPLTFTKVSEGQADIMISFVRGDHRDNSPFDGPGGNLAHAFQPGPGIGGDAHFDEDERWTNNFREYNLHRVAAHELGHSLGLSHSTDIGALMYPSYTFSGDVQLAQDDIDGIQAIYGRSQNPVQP
# Description: We used mass spectrometry to examine the cleavage of the MMP-1 substrate peptide in the ELP-substrate fusion by measuring the molecular weight of the polypeptides prior to, and after incubation with MMP-1. We incubated 0.5 mL of 100 μM polypeptide in proteolysis buffer with 100 ng/mL of MMP-1 for 2 h at 25° C. […] For example, an enzymatic reaction can be written in general form as:
# In which V0 is the initial rate of the enzymatic reaction at a given substrate concentration. Using equation Eq. 4, we can calculate Vmax by plotting 1/V0 versus 1/[S] at different substrate concentrations and a constant enzyme concentration and then calculate kcat by implementing equation Eq. 3.
# We performed a series of kinetic studies in which the concentration of the substrate in the buffer solution was chosen to be 25, 50, 100, and 200 μM. We then added 20 ng/mL of enzyme to each of the solutions and kept all the solutions at a constant temperature (40′C). […] We quantified these changes by image analysis (ImageJ software) and used them to quantify the amount of product for each substrate concentration at each sampling time. We then calculated the initial rate of the reaction (V0) by using the concentration of the converted substrate and the time of reaction.
# We then used equation Eq. 4 and plotted 1/[S] versus 1/[V0] […] From Vmax and equation Eq. 3, we calculated kcat to be equal to 8.0±1.9 s^−1. […]
# MMP-1 [2] = molecular target: T1, MMP-1; test: Thermal behavior (OD350, DLS) after incubation with MMP-1; details: MMP-1 100 ng/mL, 12 h at 40° C.
# Description: We performed the proteolysis reactions either in 100% protease buffer or in a mixture of human serum and buffer (40% (v/v) serum, 50% (v/v) buffer, 10% (v/v) ELP-substrate solution in water). The proteolysis buffer (100 mM HEPES, CaCl2 20 mM, MgCl2 1.0 mM, ZnCl2 100 μM, NaCl 0.5 M for diluted serum and 0.1 M for buffer solutions) was made experimentally in our lab based on previously published assays (Patterson, J. & Hubbell, J. A. Biomaterials 2010, 31, 7836-7845; Turk, B. E. et al., Nature Biotechnology 2001, 19, 661-667; Lowe, S. B. et al., Acs Nano 2012, 6, 851-857). We investigated proteolysis in two ways. In the first approach, we incubated solutions of the ELP-substrate fusion with MMP-1 (100 ng/mL) for 12 h at 40° C. temperature and measured the optical density at 350 nm (OD350) before and after the incubation. In the second approach, we incubated the ELP-substrate fusion with varying concentrations of MMP-1 (0.02 ng/mL to 200 ng/mL) in buffer or in diluted human serum, at 40° C. or 37° C. respectively, a temperature that is above the CMT of the ELP, and monitored the changes OD350 as a function of time (kinetic study). For the kinetic studies, we added the enzyme to the solution after the optical density of the solution reached a steady-state value and repeated the experiments at least three times. […]
# [3] = molecular target: T2, Human MMP-1 catalytic domain (Homo sapiens, UniProt P03956); test: Time-dependent aggregation (OD350) of ELP-substrate fusion with MMP-1 in proteolysis buffer; details: 50 ng/mL MMP-1, without the inhibitor, proteolysis buffer, 40° C., 100 μM
# T2 construct: Human MMP-1 catalytic domain (recombinant, produced in E. coli, 19.9 kDa, >95% purity); purchased Enzo Life Sciences (Farmingdale, N.Y.); host or cells: E. coli
# T2 sequence (P03956 100-269 limits assumed): T1 sequence (P03956 100-269 limits assumed)
substance,measurement,setting,value
"M(GVGVP)60GDGQVPMSMRGGDDEGQQDDEEGY (MGVGVPGDGQVPMSMRGGDDEGQQDDEEGY) [ELP-substrate fusion, recombinant polypeptide: ELP fused to MMP-1 substrate and charged hydrophilic peptide]",kcat,MMP-1 [1],8.0 ± 1.9 s⁻¹
same,temperature above which large aggregates form after incubation with MMP-1,MMP-1 [2]; 100 μM,≈ 37 °C
same,particle diameter after incubation with MMP-1,MMP-1 [2]; DLS at 38° C.,over a micron
same,aggregation time,[3],less than 50 min
